Data: patent publication US9416353B2, “Covalent tethering of functional groups to proteins and substrates therefor” (Promega Corporation, priority 2004, dated 2016)
Positions count from the first letter of the chain named. Names and notes keep the numbering of the source.

B1: DhaA.WT: wild-type Rhodococcus rhodochrous dehalogenase (DhaA), generally GST at the N-terminus and FLAG at the C-terminus (protein, UniProt P0A3G2 1-293, looked up)
Haloalkane dehalogenase: MSEIGTGFPFDPHYVEVLGERMHYVDVGPRDGTPVLFLHGNPTSSYLWRNIIPHVAPSHRCIAPDLIGMGKSDKPDLDYFFDDHVRYLDAFIEALGLEEVVLVIHDWGSALGFHWAKRNPERVKGIACMEFIRPIPTWDEWPEFARETFQAFRTADVGRELIIDQNAFIEGALPKCVVRPLTEVEMDHYREPFLKPVDREPLWRFPNELPIAGEPANIVALVEAYMNWLHQSPVPKLLFWGTPGVLIPPAEAARLAESLPNCKTVDIGPGLHYLQEDNPDLIGSEIARWLPAL
modifications: N-terminal GST, C-terminal FLAG tag
B2: DhaA.H272G: DhaA mutant, His272 replaced with Gly (protein, UniProt P0A3G2 1-293, looked up, variant H272G)
Haloalkane dehalogenase: B1 Haloalkane dehalogenase with H272G
B3: DhaA.H272A: DhaA mutant, His272 replaced with Ala (protein, UniProt P0A3G2 1-293, looked up, variant H272A)
Haloalkane dehalogenase: B1 Haloalkane dehalogenase with H272A
B4: DhaA.H272F YL: DhaA.H272F based mutant with Y273L (protein, UniProt P0A3G2 1-293, looked up, variant H272F Y273L)
Haloalkane dehalogenase: B1 Haloalkane dehalogenase with H272F, Y273L
B5: DhaA.H272F H11: first generation DhaA.H272F mutant with K175M and C176G (protein, UniProt P0A3G2 1-293, looked up, variant K175M C176G H272F)
Haloalkane dehalogenase: B1 Haloalkane dehalogenase with K175M, C176G, H272F
B6: DhaA.H272F YC: DhaA.H272F based mutant with Y273C (protein, UniProt P0A3G2 1-293, looked up, variant H272F Y273C)
Haloalkane dehalogenase: B1 Haloalkane dehalogenase with H272F, Y273C
B7: DhaA.H272F: DhaA mutant, catalytic His272 replaced with Phe (protein, UniProt P0A3G2 1-293, looked up, variant H272F)
Haloalkane dehalogenase: B1 Haloalkane dehalogenase with H272F
B8: DhaA.H272Q: DhaA mutant, His272 replaced with Gln (protein, UniProt P0A3G2 1-293, looked up, variant H272Q)
Haloalkane dehalogenase: B1 Haloalkane dehalogenase with H272Q
B9: DhaA.H272F YM: DhaA.H272F based mutant with Y273M (protein, UniProt P0A3G2 1-293, looked up, variant H272F Y273M)
Haloalkane dehalogenase: B1 Haloalkane dehalogenase with H272F, Y273M
B10: BlaZ.N170Q (protein, UniProt P00807 25-281, looked up, variant N170Q)
Beta-lactamase: KELNDLEKKYNAHIGVYALDTKSGKEVKFNSDKRFAYASTSKAINSAILLEQVPYNKLNKKVHINKDDIVAYSPILEKYVGKDITLKALIEASMTYSDNTANNKIIKEIGGIKKVKQRLKELGDKVTNPVRYEIELNYYSPKSKKDTSTPAAFGKTLNKLIANGKLSKEQKKFLLDLMLNNKSGDTLIKDGVPKDYKVADKSGQAITYASRNDVAFVYPKGQSEPIVLVIFTNKDNKSDKPNDKLISETAKSVMKEF

How the values were obtained:
[1] = pH-indicator dye assay of hydrolysis of Cl-alkanes by DhaA (WT or mutant); format: biochemical; conditions: 0.1 mg/ml of enzyme, 10 mM substrate, pH 7.0-8.2
Source text: To study the effect of a point mutation on the activity of DhaA (WT or mutant) hydrolysis of Cl-alkanes, a pH-indicator dye system as described by Holloway et al. (1998) was employed.

[2] = Precipitation of DhaA.WT and mutants with (NH4)2SO4; format: physicochemical; conditions: 2 hours, 4° C.
Description: Aliquots of the supernatant obtained from E. coli expressing DhaA (WT or one of the mutants) were treated with increasing concentrations of (NH4)2SO4. The proteins were exposed to each (NH4)2SO4 concentration for 2 hours (4° C.), pelleted by centrifugation, dialyzed overnight against buffer A, and resolved on SDS-PAGE.

[3] = format: binding; conditions: biotin-PEG4-14-Cl substrate
[4] = Thermostability analysis of purified DhaA mutants (residual labeling activity, FP); format: physicochemical; conditions: for thermostability (residual activity): 60 minute incubations at various temperature
Description: The thermostability profiles of the DhaA mutants were determined by measuring the residual activity of the purified proteins following 15, 30 or 60 minute incubations at 4, 22, 30, 37, 42, 50 or 60° C. The FP assay was performed at room temperature (about 25° C.). […] For each clone, the labeling rate (slope of the linear range) was calculated for each condition. The rate observed following a 15 minute incubation at 4° C. was arbitrarily assigned as 100% activity. The residual activity (%) was calculated for each condition. To determine stability, for each incubation time, the % of residual activity was plotted against the incubation temperatures. To calculate half-life, for each incubation temperature, the % of residual activity was plotted against the incubation time. The time where 50% activity was lost was extrapolated from the graph.

[5] = DhaA capture using immobilized biotin chloroalkane substrates (streptavidin plates, ELISA-type); format: binding; conditions: for reaction with immobilized biotin-PEG4-14-Cl: titration
Description: Using an excess of substrate (about 2 μmol), the plates could bind approximately 75 μmol of biotin per well. […] Reactions between immobilized substrate and mutant DhaAs were performed using purified GST-DhaA-Flag fusions. Various concentrations of protein (100 μL; diluted in PBSTB) were incubated with immobilized substrate for various times at 25° C., and the reactions were stopped by emptying the plates and washing 4× with PBST. To detect bound DhaA, 100 μL anti-GST-HRP (Amersham) was added to each well at a 1:10,000 dilution (in PBSTB) and the plates incubated for 1 hour at 25° C.

[6] = In vivo labeling of DhaA mutants expressed in CHO-K1 cells (cell-to-gel analysis); format: cell-based; conditions: 5 μM substrate
Description: (§1) Proteins (2-10 μl/lane) were resolved on SDS-PAGE (4-20% gradient gels).

[7] = In vivo stability of DhaA mutants in transiently transfected CHO-K1 cells; format: cell-based; conditions: 12, 24 and 48 hours post-transfection
Description: as §1

[8] = MagneGST assay
Description: Bacterial colonies were picked into 96-well plates containing LB+Amp and incubated with shaking at 30° C. The cultures were diluted 1:20 into 96 well plates containing fresh TB medium, Amp and 0.1 mM IPTG. The plates were incubated at 30° C. with shaking overnight. The 96 well plates containing the IPTG induced cultures were centrifuged and supernatants removed. DhaA mutants were normalized for protein concentration by saturating protein capture on MagneGST™ PMPs. […] The plates were shaken at about 900 rpm for 10 minutes at room temperature. The particles were washed three times with PBST using a MagnaBot® 96 magnetic separation device. The wash solution was removed and MagneGST™ elution solution was added and the plates were allowed to shake at room temperature (about 900 rpm for 5 minutes). Supernatants were transferred to a new, flat bottom, transparent 96 well plate and the fluorescence intensity was measured using an excitation wavelength at 550 nm and an emission wavelength at 580 nm.
Four colonies at random of each identified hit were inoculated into 200 μL LB+Amp and grown overnight at 30° C. in flat bottom 96 well plates. Overnight cultures were diluted 1:50 into 200 μL TB ampicillin supplemented with 0.1 mM IPTG and grown overnight at 30° C. and 37° C. Induced cultures were re-assayed using the MagneGST™ based screen.

[9] = Hydrolysis of FAP by GST-BlaZ (WT or mutants); format: biochemical; conditions: up to 60 minutes of co-incubation
Description: The chromogenic substrate 6-β-[(Furylacryloyl)amido]penicillanic acid triethylamine salt (FAP) was purchased from Calbiochem (La Jolla, Calif.). […] All assays were performed at 25° C. in 0.1 M potassium phosphate buffer at pH 6.8.

| Molecule | (NH4)2SO4 concentration that precipitates the protein [2] [%] | signal relative to the parental clones [3] | thermostability (residual activity) [4] | other results |
| --- | --- | --- | --- | --- |
| B1 |  |  |  | activity with 1-Cl-butane [1]: 5 units/mg of protein |
| B2 | 10 |  |  |  |
| B3 | 10 |  |  |  |
| B4 |  | significantly improved | relatively unstable at temperatures above 30 °C | reaction with immobilized biotin-PEG4-14-Cl [5]: react most efficiently |
| B5 |  |  | retained significant labeling activity following incubation as high as 50 °C | half-life ([4]; at 50° C.): 58 min; in vivo labeling performance compared to parent DhaA.H272F [6]: superior performance characteristics; reaction with immobilized biotin substrates ([5]; all biotin substrates tested): reacted poorly; production of active protein (fluorescent signal after labeling) [7]: more active protein after 48 hours; signal relative to the respective parents [8]: considerably higher signal |
| B6 |  | significantly improved | relatively unstable at temperatures above 30 °C |  |
| B7 |  |  | stable up to temperatures of 40 °C |  |
| B8 | 10 |  |  |  |
| B9 |  | significantly improved | relatively unstable at temperatures above 30 °C | reaction with immobilized biotin-PEG4-14-Cl [5]: react most efficiently |
| B10 |  |  |  | hydrolysis of FAP [9]: could not be detected |
